Source: patent US20190314526A1

Experiments:
[1] = biological target: AAV-2 with a wild-type capsid (rAAV-2 virion) (AAV-2) (UniProt P03135); assay: all-A20 ELISA, virus needed for half maximal OD, against wild type
[2] = biological target: AAV-2 capsid mutant E411A (rAAV-2 virion) (AAV-2) (UniProt P03135); assay: cell-based or functional assay
[3] = biological target: AAV-2 capsid mutant E394K (rAAV-2 virion) (AAV-2) (UniProt P03135); assay: cell-based or functional assay
[4] = biological target: AAV-2 capsid mutant Q126A (rAAV-2 virion) (AAV-2) (UniProt P03135); assay: cell-based or functional assay
[5] = biological target: AAV-2 capsid mutant E437A (rAAV-2 virion) (AAV-2) (UniProt P03135); assay: cell-based or functional assay
[6] = biological target: AAV-2 capsid mutant S127A (rAAV-2 virion) (AAV-2) (UniProt P03135); assay: cell-based or functional assay
[7] = biological target: AAV-2 with a wild-type capsid (rAAV-2 virion) (AAV-2) (UniProt P03135); assay: cell-based or functional assay
[8] = biological target: AAV-2 capsid mutant K395A (rAAV-2 virion) (AAV-2) (UniProt P03135); assay: cell-based or functional assay
[9] = biological target: AAV-2 capsid mutant K569A (rAAV-2 virion) (AAV-2) (UniProt P03135); assay: cell-based or functional assay
[10] = biological target: AAV-2 capsid mutant S247A (rAAV-2 virion) (AAV-2) (UniProt P03135); assay: cell-based or functional assay
[11] = biological target: AAV-2 capsid mutant W365A (rAAV-2 virion) (AAV-2) (UniProt P03135); assay: cell-based or functional assay
[12] = biological target: AAV-2 capsid mutant Q248A (rAAV-2 virion) (AAV-2) (UniProt P03135); assay: cell-based or functional assay
[13] = biological target: AAV-2 capsid mutant V571K (rAAV-2 virion) (AAV-2) (UniProt P03135); assay: cell-based or functional assay
[14] = biological target: AAV-2 capsid mutant K407A (rAAV-2 virion) (AAV-2) (UniProt P03135); assay: cell-based or functional assay
[15] = biological target: AAV-2 capsid mutant V571A (rAAV-2 virion) (AAV-2) (UniProt P03135); assay: cell-based or functional assay
[16] = biological target: AAV-2 capsid mutant R334A (rAAV-2 virion) (AAV-2) (UniProt P03135); assay: all-A20 ELISA, against wild type
[17] = biological target: AAV-2 capsid mutant R334A/G449A (rAAV-2 virion) (AAV-2) (UniProt P03135); assay: all-A20 ELISA, against wild type
[18] = biological target: AAV-2 capsid mutant T413K (rAAV-2 virion) (AAV-2) (UniProt P03135); assay: all-A20 ELISA, against wild type
[19] = biological target: AAV-2 capsid mutant S130T (rAAV-2 virion) (AAV-2) (UniProt P03135); assay: all-A20 ELISA, against wild type
[20] = biological target: AAV-2 capsid mutant E411A/T413A (rAAV-2 virion) (AAV-2) (UniProt P03135); assay: all-A20 ELISA, against wild type
[21] = biological target: AAV-2 capsid mutant S130A (rAAV-2 virion) (AAV-2) (UniProt P03135); assay: all-A20 ELISA, against wild type
[22] = biological target: AAV-2 capsid mutant G449A (rAAV-2 virion) (AAV-2) (UniProt P03135); assay: all-A20 ELISA, against wild type
[23] = biological target: AAV-2 capsid mutant N568A (rAAV-2 virion) (AAV-2) (UniProt P03135); assay: all-A20 ELISA, against wild type
[24] = biological target: AAV-2 capsid mutant N568K (rAAV-2 virion) (AAV-2) (UniProt P03135); assay: all-A20 ELISA, against wild type
[25] = biological target: AAV-2 capsid mutant G246A (rAAV-2 virion) (AAV-2) (UniProt P03135); assay: all-A20 ELISA, against wild type
[26] = biological target: AAV-2 capsid mutant G449A/N568A (rAAV-2 virion) (AAV-2) (UniProt P03135); assay: all-A20 ELISA, against wild type
[27] = biological target: AAV-2 capsid mutant E411A/T413A/G449A/N450A (rAAV-2 virion) (AAV-2) (UniProt P03135); assay: all-A20 ELISA, against wild type
[28] = biological target: AAV-2 capsid mutant V571K (rAAV-2 virion) (AAV-2) (UniProt P03135); assay: all-A20 ELISA, against wild type
[29] = biological target: AAV-2 capsid mutant N568A/V571A (rAAV-2 virion) (AAV-2) (UniProt P03135); assay: all-A20 ELISA, against wild type
[30] = biological target: AAV-2 capsid mutant E393D (rAAV-2 virion) (AAV-2) (UniProt P03135); assay: all-A20 ELISA, against wild type
[31] = biological target: AAV-2 capsid mutant H372Q (rAAV-2 virion) (AAV-2) (UniProt P03135); assay: all-A20 ELISA, against wild type
[32] = biological target: AAV-2 capsid mutant H134Q (rAAV-2 virion) (AAV-2) (UniProt P03135); assay: all-A20 ELISA, against wild type
[33] = biological target: AAV-2 capsid mutant D132N (rAAV-2 virion) (AAV-2) (UniProt P03135); assay: all-A20 ELISA, against wild type
[34] = biological target: AAV-2 capsid mutant R334A/N568A (rAAV-2 virion) (AAV-2) (UniProt P03135); assay: all-A20 ELISA, against wild type
[35] = biological target: AAV-2 capsid mutant R334A/G449A/N568A (rAAV-2 virion) (AAV-2) (UniProt P03135); assay: all-A20 ELISA, against wild type
[36] = biological target: AAV-2 capsid mutant N360H (rAAV-2 virion) (AAV-2) (UniProt P03135); assay: all-A20 ELISA, against wild type
[37] = biological target: AAV-2 capsid mutant H372K (rAAV-2 virion) (AAV-2) (UniProt P03135); assay: all-A20 ELISA, against wild type
[38] = biological target: AAV-2 capsid mutant D357E (rAAV-2 virion) (AAV-2) (UniProt P03135); assay: all-A20 ELISA, against wild type

Substance: murine monoclonal antibody A20 (protein A-purified anti-AAV-2 mouse monoclonal antibody)
- Fold decrease in binding of murine A20 [1]: 1 fold
- Fold decrease in A20 titer [2]: 2.7 fold
- Fold decrease in A20 titer [3]: 0.9 fold
- Fold decrease in neutralizing titer [4]: 2.5 fold
- neutralizing titer of A20 (reciprocal dilution) [4]: 203
- Fold decrease in A20 titer [5]: 0.8 fold
- Fold decrease in neutralizing titer [6]: 57 fold
- neutralizing titer of A20 (reciprocal dilution) [6]: 9
- % neutralized at dilutions of A20 greater than 1:1000 [7]: < 3%
- Fold decrease in neutralizing titer [7]: 1 fold
- neutralizing titer of A20 (reciprocal dilution) [7]: 509
- Fold decrease in A20 titer [8]: 0.9 fold
- Fold decrease in A20 titer [9]: 1.7 fold
- Fold decrease in neutralizing titer [10]: 2.8 fold
- neutralizing titer of A20 (reciprocal dilution) [10]: 180
- Fold decrease in A20 titer [11]: 0.5 fold
- Fold decrease in neutralizing titer [12]: 5.7 fold
- neutralizing titer of A20 (reciprocal dilution) [12]: 89
- Fold decrease in A20 titer [13]: 217 fold
- Fold decrease in A20 titer [14]: 1.6 fold
- Fold decrease in A20 titer [15]: 1.4 fold
- Fold decrease in binding of murine A20 [16]: 1 fold
- Fold decrease in binding of murine A20 [17]: 1 fold
- Fold decrease in binding of murine A20 [18]: 1 fold
- Fold decrease in binding of murine A20 [19]: 1 fold
- Fold decrease in binding of murine A20 [20]: 1 fold
- Fold decrease in binding of murine A20 [21]: 1 fold
- Fold decrease in binding of murine A20 [22]: 1 fold
- Fold decrease in binding of murine A20 [23]: 1 fold
- Fold decrease in binding of murine A20 [24]: 1 fold
- Fold decrease in binding of murine A20 [25]: 1 fold
- Fold decrease in binding of murine A20 [26]: 1 fold
- Fold decrease in binding of murine A20 [27]: 1 fold
- Fold decrease in binding of murine A20 [28]: 10 fold
- Fold decrease in binding of murine A20 [29]: 1 fold
- Fold decrease in binding of murine A20 [30]: 1 fold
- Fold decrease in binding of murine A20 [31]: 1 fold
- Fold decrease in binding of murine A20 [32]: 1 fold
- Fold decrease in binding of murine A20 [33]: 1 fold
- Fold decrease in binding of murine A20 [34]: 1 fold
- Fold decrease in binding of murine A20 [35]: 1 fold
- Fold decrease in binding of murine A20 [36]: 1 fold
- Fold decrease in binding of murine A20 [37]: 1 fold
- Fold decrease in binding of murine A20 [38]: 1 fold
